# Source: patent publication US20220257632A1, “MICROLUMENAL TARGETING OF CANCER CELLS” (Fred Hutchinson Cancer Research Center, priority 2019, published 2022)
# Key:
# [1] = tested on: MMTV-PyMT clusters; test: Sulfo-NHS-biotin permeability of MMTV-PyMT clusters; assay type: cell-based, mouse; details: treatment 1 hr prior to biotin
# Description: (§1) FIG. 4C is a quantification of epigen immunogold signal; n=268 gold particles. To determine if microlumenal junctions were permeable, clusters were incubated with cell-impermeable sulfo-NHS-biotin. 1 mM EGTA was used as a positive control to disrupt cell-cell junctions. Biotin leak was quantified by measuring streptavidin-FITC fluorescence signal within clusters. n=3 biological replicates. n=75 clusters per condition. P-values=Mann-Whitney tests (FIG. 4D) Immunofluorescence of epigen in clusters with and without 1 mM EGTA treatment to disrupt cell-cell junctions was measured. […] P-value=Mann-Whitney test.
# The accumulation of epigen within microlumina implied a mechanism for preventing ligand diffusion and signal reduction. To characterize the permeability of tumor cell clusters, a technique used to differentially label apical and basal proteins was adapted. Clusters were treated with a cell impermeable biotin (sulfo-NHS-biotin, 0.4 KDa) which labels membrane surface proteins but is excluded from the cytosol. At baseline, biotin was excluded from cell-cell junction membranes within MMTV-PyMT clusters and predominantly labeled the cell-matrix junction membranes (FIG. 4D).
# To test the permeability of tumor cell clusters, NHS-biotin was added to a final concentration of 0.8 mM in PBS for 30 minutes at 37° C. […]
# (§2) Phalloidin staining and DAPI were used to define membrane and nuclear areas, respectively. Using the freehand line tool in FIJI software, lines along cell-matrix (outer membrane), cell-cell (intercellular) membranes, and intracellular (cytosolic) areas were drawn and median fluorescence intensity was measured for each channel. […] Then the polygon selection tool was used to measure FITC-streptavidin intensity in the cluster core (excluding the cell-matrix contacts) and intensity was normalized to the area measured. To assess biotin permeability in tumor vs. stroma areas, mean FITC-streptavidin signal was measured in FIJI in equally sized squares in adjacent pure tumor or pure stroma areas. […]
# [2] = tested on: MMTV-PyMT clusters; test: Epigen immunofluorescence in MMTV-PyMT clusters after junction disruption; assay type: cell-based, mouse
# Description: as §1, with “test. […]” for “test.”
# as §2
# [3] = tested on: tumor cell clusters; test: Cluster outgrowth on treatment with recombinant epigen; assay type: cell-based
# [4] = tested on: HCC70 clusters; test: pHH3 immunofluorescence (mitotic cells) and cell death in HCC70 clusters; assay type: cell-based, human
# [5] = tested on: HCC70 clusters; test: Biotin leak-in permeability assay of HCC70 clusters; assay type: cell-based, human; details: 6 days, 3 ng/mL
# From the text: FIG. 7A is a qPCR measurement of EPGN expression in HCC70 clusters. n=3 biological replicates. P-values=unpaired t-tests. […] P-values=unpaired t-tests. FIG. 7C is a quantification of individual lung metastasis areas (lungs three weeks after tail vein injection of 200,000 Ctrl-kd or Epgn-kd HCC70 clustered cells). n (# of metastases): Ctrl-kd=299, Epgn-kd=87. n (# of mice): 7 per condition. Box plot=5-95%. P-value=Mann-Whitney test. […] Line=non-linear regression. Band=95% CI. n=3 biological replicates. P-value=extra sum-of-squares F test. […] P-value=Mann-Whitney test. FIG. 7F is a quantification of internal FITC-streptavidin intensity biotin leak-in assay of HCC70 clusters after 6 days of treatment with or without 3 ng/mL IFNγ). n=60 untreated clusters, 70 IFNγ treated clusters. n=3 biological replicates. […] 3 weeks later, lung metastases were scored by staining for the human-specific marker CD298. […]
# Phalloidin staining and DAPI were used to define membrane and nuclear areas, respectively. Using the freehand line tool in FIJI software, lines along cell-matrix (outer membrane), cell-cell (intercellular) membranes, and intracellular (cytosolic) areas were drawn and median fluorescence intensity was measured for each channel. […] To assess biotin permeability in tumor vs. stroma areas, mean FITC-streptavidin signal was measured in FIJI in equally sized squares in adjacent pure tumor or pure stroma areas. […]
# [6] = tested on: HCC70 clusters; test: Tail vein lung metastasis assay of IFNγ pre-treated HCC70 clusters in NSG mice; assay type: in vivo; details: clusters pre-treated 6 days at 2 ng/mL, 3 weeks
# From the text: FIG. 7A is a qPCR measurement of EPGN expression in HCC70 clusters. n=3 biological replicates. P-values=unpaired t-tests. […] P-values=unpaired t-tests. FIG. 7C is a quantification of individual lung metastasis areas (lungs three weeks after tail vein injection of 200,000 Ctrl-kd or Epgn-kd HCC70 clustered cells). n (# of metastases): Ctrl-kd=299, Epgn-kd=87. n (# of mice): 7 per condition. Box plot=5-95%. P-value=Mann-Whitney test. […] Line=non-linear regression. Band=95% CI. n=3 biological replicates. P-value=extra sum-of-squares F test. […] P-value=Mann-Whitney test. FIG. 7F is a quantification of internal FITC-streptavidin intensity biotin leak-in assay of HCC70 clusters after 6 days of treatment with or without 3 ng/mL IFNγ). n=60 untreated clusters, 70 IFNγ treated clusters. n=3 biological replicates. P-value=Mann-Whitney test. […] 3 weeks later, lung metastases were scored by staining for the human-specific marker CD298. […]
# For single cell vs. cluster experiments, mTomato-PyMT organoids were dissociated to single cells at day 0 using Accumax (20 minutes at 37° C.). […] DIC images were taken before injection and assessed to ensure similar number and size of clusters injected between conditions. 3 weeks after tail vein injection mice were euthanized and lungs imaged under a dissecting microscope for quantification of fluorescent (metastatic) area. […]
# [7] = tested on: HCC70 tumor cell clusters; test: Viable cell quantification of HCC70 clusters after 6 days of IFNγ treatment; assay type: cell-based, human
# From the text: FIG. 7A is a qPCR measurement of EPGN expression in HCC70 clusters. n=3 biological replicates. P-values=unpaired t-tests. […] P-values=unpaired t-tests. FIG. 7C is a quantification of individual lung metastasis areas (lungs three weeks after tail vein injection of 200,000 Ctrl-kd or Epgn-kd HCC70 clustered cells). n (# of metastases): Ctrl-kd=299, Epgn-kd=87. n (# of mice): 7 per condition. Box plot=5-95%. P-value=Mann-Whitney test. […] Line=non-linear regression. Band=95% CI. n=3 biological replicates. P-value=extra sum-of-squares F test. […] P-value=Mann-Whitney test. FIG. 7F is a quantification of internal FITC-streptavidin intensity biotin leak-in assay of HCC70 clusters after 6 days of treatment with or without 3 ng/mL IFNγ). n=60 untreated clusters, 70 IFNγ treated clusters. n=3 biological replicates. P-value=Mann-Whitney test. FIG. 7G is a TEM of HCC70 clusters after 6 days with and without IFNγ treatment (3 ng/mL). MP=microvilli-like protrusions. J=cell-cell junctions. FIG. 7H is a qPCR of (left) RAB25 and (right) CLDN7 in HCC70 clusters after 0, 3, and 6 days with and without 3 ng/mL IFNγ treatment. n=3 biological replicates. P-value=unpaired t-test. FIGS. 7I and 7J: HCC70 single cells were aggregated for 24 hrs then treated with or without 2 ng/mL IFNγ treatment. After 6 days of treatment, clusters from each condition were injected by tail vein into NSG mice, with 200,000 viable clustered cells injected per animal. 3 weeks later, lung metastases were scored by staining for the human-specific marker CD298. Sizes of individual HCC70 metastases at 3 weeks after tail vein injection. n=8 mice/condition, 217 untreated metastases, 79 IFNγ pre-treated metastases. Box plot=5-95%. P-value=Mann-Whitney test (7I). […]
# Human cell lines were cultured in complete media (DMEM or RPMI with penicillin/streptomycin+10% FBS) on tissue-culture treated plates, or in non-adherent plates supplemented with 2% Matrigel (v/v). […] Human organoids were cultured with 2% (v/v) or 100% growth factor reduced Matrigel (Corning) with HuMEC Ready media (Fisher 12752010).
# [8] = tested on: MDA-MB-231; test: Biotin permeability of MDA-MB-231 clusters; assay type: cell-based, human; details: MDA-MB-231, with or without treatment
# [9] = tested on: HCC70 clusters; test: qPCR of RAB25 and CLDN7 in HCC70 clusters; assay type: cell-based, human; details: 3 ng/mL
# From the text: (§3) FIG. 7A is a qPCR measurement of EPGN expression in HCC70 clusters. n=3 biological replicates. P-values=unpaired t-tests. […] P-values=unpaired t-tests. FIG. 7C is a quantification of individual lung metastasis areas (lungs three weeks after tail vein injection of 200,000 Ctrl-kd or Epgn-kd HCC70 clustered cells). n (# of metastases): Ctrl-kd=299, Epgn-kd=87. n (# of mice): 7 per condition. Box plot=5-95%. P-value=Mann-Whitney test. […] Line=non-linear regression. Band=95% CI. n=3 biological replicates. P-value=extra sum-of-squares F test. […] P-value=Mann-Whitney test. FIG. 7F is a quantification of internal FITC-streptavidin intensity biotin leak-in assay of HCC70 clusters after 6 days of treatment with or without 3 ng/mL IFNγ). n=60 untreated clusters, 70 IFNγ treated clusters. n=3 biological replicates. P-value=Mann-Whitney test. FIG. 7G is a TEM of HCC70 clusters after 6 days with and without IFNγ treatment (3 ng/mL). MP=microvilli-like protrusions. J=cell-cell junctions. FIG. 7H is a qPCR of (left) RAB25 and (right) CLDN7 in HCC70 clusters after 0, 3, and 6 days with and without 3 ng/mL IFNγ treatment. n=3 biological replicates. P-value=unpaired t-test. […] 3 weeks later, lung metastases were scored by staining for the human-specific marker CD298. […]
# Human or mouse tumor cell clusters were pelleted and snap frozen in liquid nitrogen. […] Data were analyzed using the ΔΔCt method.
# [10] = tested on: MDA-MB-231; test: Viable cell quantification of MDA-MB-231 after 6 days of IFNγ treatment; assay type: cell-based, human; details: MDA-MB-231, viable cells after 6 days of treatment
# [11] = tested on: HCC70 clusters; test: TEM of HCC70 clusters with and without IFNγ; assay type: cell-based, human; details: 6 days, 3 ng/mL
# From the text: as §3, with “t-test. FIGS. 7I and 7J: HCC70 single cells were aggregated for 24 hrs then treated with or without 2 ng/mL IFNγ treatment.” for “t-test.”
# [12] = HCC70 tumor cell clusters, viable cells after 6 days of treatment
molecule,measurement,setting,value
C/C1=C/C(=O)O[C@@H]2C[C@@H](CC[C@H](C)/C=C\C=C\CC1)O[C@@](O)([C@@H]1CSC(=O)N1)C2 [Latrunculin A],biotin leak into clusters,[1],allowed biotin to leak between clustered cells
"O=C(O)CN(CCOCCOCCN(CC(=O)O)CC(=O)O)CC(=O)O [calcium chelation, ethylene glycol-bis(β-aminoethyl ether)-N,N,N′,N′-tetraacetic acid]",epigen signal in clusters (immunofluorescence),[2],marked loss of epigen signal
same,biotin leak into clusters,[1],biotin was able to leak into intercellular spaces
C[C@@H]1Cc2c(Cl)cc(C(=O)N[C@@H](Cc3ccccc3)C(=O)O)c(O)c2C(=O)O1 [ochratoxin A],biotin leak into clusters,[1],allowed biotin to leak between clustered cells
"recombinant epigen: Recombinant epigen (R&D 1127-EP), growth factor and EGFR ligand (protein, UniProt Q6UW88 23-154, looked up) Epigen: AAVTVTPPITAQQGNWTVNKTEADNIEGPIALKFSHLCLEDHNSYCINGACAFHHELEKAICRCFTGYTGERCEHLTLTSYAVDSYEKYIAIGIGVGLLLSGFLVIFYCYIRKRCLKLKSPYNVCSGERRPL",outgrowth,[3],induced outgrowth in a dose-dependent manner
"interferon gamma (protein, UniProt P01579 24-161, looked up, a cytokine FDA-approved for use in patients) Interferon gamma: QDPYVKEAENLKKYFNAGHSDVADNGTLFLGILKNWKEESDRKIMQSQIVSFYFKLFKNFKDDQSIQKSVETIKEDMNVKFFNSNKKKRDDFEKLTNYSVTDLNVQRKAIHELIQVMAELSPAAKTGKRKRSQMLFRG",cell death,[4],not increased cell death
same,proliferation (% pHH3+ nuclei),"[4]; 6 days, 3 ng/mL",strong suppression of proliferation
same,intercellular permeability by biotin-leak assay,[5],increased intercellular permeability
same,number of lung metastases,[6],fewer
same,size of lung metastases,[6],significantly smaller
same,outgrowth,[7]; HCC70 clusters,markedly reduced outgrowth
same,IC50,[7]; [12],0.58 ng/mL
same,IC75,[7]; [12],0.97 ng/mL
same,biotin permeability,[8],highly biotin-permeable in both the absence or presence of IFNγ treatment
same,CLDN7 expression (qPCR),[9],significant reduction
same,RAB25 expression (qPCR),[9],significant reduction
same,IC50,[10],4.24 ng/mL
same,IC75,[10],22.3 ng/mL
same,microlumenal spacing and electron-dense junctions by TEM,[11],increased microlumenal spacing and decreased electron-dense junctions
